# Where a name gives a salt, the structure may show the parent alone.
# What was measured:
# [1] = biological target: MT-H-Eno (M.tb H37Rv Enolase) (Mycobacterium tuberculosis, UniProt P9WNL1)
# [2] = biological target: T1, MT-PykA-H (M.tb H37Rv PykA) (Mycobacterium tuberculosis, UniProt P9WKE5)
# T1 construct: gene pyk
# [3] = biological target: transferrin-biotin (human) (UniProt P02787); assay: pull-down
# [4] = tested on: NC(=O)c1ccc[n+]([C@@H]2O[C@H](COP(=O)(O)OP(=O)(O)OC[C@H]3O[C@@H](n4cnc5c(N)ncnc54)[C@H](O)[C@@H]3O)[C@@H](O)[C@H]2O)c1; assay: purified protein; conditions: pH 8.5; 25.0 °C
# O=C[C@H](O)COP(=O)(O)O = assay: purified protein; conditions: pH 8.5; 25.0 °C
# transferrin-biotin (human), sequence (P02787 20-698): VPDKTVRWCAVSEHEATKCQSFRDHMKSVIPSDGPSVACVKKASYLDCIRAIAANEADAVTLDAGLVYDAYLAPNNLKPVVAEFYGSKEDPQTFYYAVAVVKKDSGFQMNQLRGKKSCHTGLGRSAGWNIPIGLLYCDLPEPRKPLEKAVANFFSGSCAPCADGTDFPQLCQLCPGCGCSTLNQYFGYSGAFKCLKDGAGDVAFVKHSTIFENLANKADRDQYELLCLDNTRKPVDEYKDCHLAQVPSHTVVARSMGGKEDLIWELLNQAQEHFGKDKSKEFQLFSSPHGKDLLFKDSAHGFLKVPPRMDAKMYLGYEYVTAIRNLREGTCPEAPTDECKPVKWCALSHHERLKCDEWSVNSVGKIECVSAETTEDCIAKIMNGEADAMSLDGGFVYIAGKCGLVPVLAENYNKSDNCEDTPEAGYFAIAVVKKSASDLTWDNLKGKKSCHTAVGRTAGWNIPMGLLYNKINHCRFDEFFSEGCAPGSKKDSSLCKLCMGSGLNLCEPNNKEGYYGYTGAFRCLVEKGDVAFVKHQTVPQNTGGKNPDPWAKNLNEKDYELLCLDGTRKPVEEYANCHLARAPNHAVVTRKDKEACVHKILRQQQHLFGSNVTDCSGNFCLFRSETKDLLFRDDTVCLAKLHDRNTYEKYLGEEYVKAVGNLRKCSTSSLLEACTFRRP
# MT-H-Eno (M.tb H37Rv Enolase), sequence (P9WNL1 whole entry, looked up): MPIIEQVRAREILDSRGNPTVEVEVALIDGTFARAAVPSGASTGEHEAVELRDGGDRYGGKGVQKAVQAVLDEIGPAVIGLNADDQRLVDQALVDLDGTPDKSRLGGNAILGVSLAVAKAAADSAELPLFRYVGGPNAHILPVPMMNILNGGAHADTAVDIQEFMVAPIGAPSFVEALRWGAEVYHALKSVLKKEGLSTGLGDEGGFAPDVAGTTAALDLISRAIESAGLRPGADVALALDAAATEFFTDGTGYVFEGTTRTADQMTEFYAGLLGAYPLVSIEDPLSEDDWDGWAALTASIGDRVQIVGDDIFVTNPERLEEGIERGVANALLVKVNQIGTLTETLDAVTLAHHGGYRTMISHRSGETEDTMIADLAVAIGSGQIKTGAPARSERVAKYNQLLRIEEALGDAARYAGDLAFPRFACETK
# T1 sequence (P9WKE5 whole entry, looked up): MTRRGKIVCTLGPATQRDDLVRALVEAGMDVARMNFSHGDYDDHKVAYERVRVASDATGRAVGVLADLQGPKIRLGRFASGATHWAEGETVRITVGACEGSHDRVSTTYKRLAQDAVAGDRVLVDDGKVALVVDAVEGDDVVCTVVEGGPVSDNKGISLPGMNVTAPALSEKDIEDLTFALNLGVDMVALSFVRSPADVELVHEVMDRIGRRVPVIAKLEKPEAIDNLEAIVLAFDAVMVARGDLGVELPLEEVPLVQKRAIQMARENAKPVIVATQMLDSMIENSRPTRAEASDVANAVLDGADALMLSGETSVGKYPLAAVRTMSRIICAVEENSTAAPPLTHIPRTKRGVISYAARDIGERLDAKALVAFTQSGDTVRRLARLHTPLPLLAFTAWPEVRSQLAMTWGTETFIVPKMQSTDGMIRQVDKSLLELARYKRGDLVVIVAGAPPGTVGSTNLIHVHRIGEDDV
compound,measurement,setting,value
O=C(O)[C@@H](CO)OP(=O)(O)O [D (+)-2 phosphoglyceric acid sodium salt],absorbance increase at 240 nm,[1],buffer lacking the specific substrate 2-PG
C=C(OP(=O)(O)O)C(=O)O [sodium phosphoenol pyruvate],lactate dehydrogenase-coupled NADH oxidation at 340 nm,[2],buffer lacking the specific substrate sodium phosphoenol pyruvate
"EC-H-GAPDH: recombinant M.tb H37Rv GAPDH with an N-terminal His tag, expressed in E. coli (from UniProt P9WN83 1-339) (enzyme)",percent decrease of binding against MT-GAPDH-H (densitometry),[3],70%
MT-GAPDH-H (M.tb rGAPDH) (Mycobacterium tuberculosis H37Rv),Km,[4],101.2 ± 8.9 µM
same,Km,O=C[C@H](O)COP(=O)(O)O,169.6 ± 10.53 µM
same,kcat,O=C[C@H](O)COP(=O)(O)O,0.00332 ± 0.0002 s⁻¹
